# Measurements from US20170081406A1.
# Molecular target: Human FcRn with human β2M on MDCK II clone 15 cells (human) (UniProt P55899)
# Assay: not given
"EC50, inhibition of FcRn mediated IgG recycling (cell lysates), MDCK II clone 15 cells, biotinylated human IgG, MSD detection [µg/mL]","EC50, inhibition of FcRn mediated IgG recycling (culture media), MDCK II clone 15 cells, biotinylated human IgG, MSD detection [µg/mL]",Substance
0.37,0.33,IgG1 Fc IgM tp L309 (wild type IgG1 Fc-multimer) (from UniProt P0DOX5 228-449) (Fc fusion)
7.28,,human IgG1 Fc-multimer IgM tp L309C (from UniProt P0DOX5 228-449) (Fc fusion)

# Molecular target: Human FcRn with human β2M on MDCK II clone 15 cells (human) (UniProt P55899)
# Assay: cell-based or functional assay
Substance,Blockade of IgG recycling (% inhibition at 100 µg/ml),Blockade of IgG intracellular uptake EC50 [µg/mL],Blockade of IgG recycling EC50 [µg/mL]
"IgG1 IgM tail-piece, H310L (Fc-multimer) (Fc fusion)",45,,
"IgG1 IgM tail-piece, T307A (Fc-multimer) (Fc fusion)",,0.54,0.35
"IgG1 IgM tail-piece, V308F (Fc-multimer) (Fc fusion)",,0.12,0.073
"IgG4 IgM tail-piece, T307A (Fc-multimer) (Fc fusion)",,0.5,
"IgG4 IgM tail-piece, V308F (Fc-multimer) (Fc fusion)",,0.42,0.56
"IgG4 IgM tail-piece, V308P (Fc-multimer) (Fc fusion)",,0.51,0.42

# The next lines start with the values.
Blockade of IgG recycling (% inhibition at 100 µg/ml),Blockade of IgG intracellular uptake EC50 [µg/mL],Blockade of IgG recycling EC50 [µg/mL],Substance
,0.34,0.55,"IgG1 IgM tail-piece, V308P (Fc-multimer) (Fc fusion)"
,4.4,0.33,"IgG1 IgM tail-piece, Wild-type (Fc-multimer) (Fc fusion)"
,5.9,1,"IgG4 IgM tail-piece, Wild-type (Fc-multimer) (Fc fusion)"
